Assay results as given in article doi:10.1101/2024.06.06.597810 (2024).
Where no end group is shown, it is not given here.

B1: S2P6 UCA VH Y32Q/M48I double mutant Fab (Fab, V domains shown)
VH: QVQLVQSGAEVKKPGASVKVSCKASGYTFTSQYMHWVRQAPGQGLEWIGIINPSGGSTSYAQKFQGRVTMTRDTSTSTVYMELSSLRSEDTAVYYCARGSPKGAFDYWGQGTLVTVSS
VL: not shown
B2: S2P6 UCA VH Y32Q/M48I/S56H triple mutant Fab (Fab, V domains shown)
VH: QVQLVQSGAEVKKPGASVKVSCKASGYTFTSQYMHWVRQAPGQGLEWIGIINPSGGHTSYAQKFQGRVTMTRDTSTSTVYMELSSLRSEDTAVYYCARGSPKGAFDYWGQGTLVTVSS
VL: not shown
B3: S2P6 UCA VH M48I/S56H double mutant Fab (Fab, V domains shown)
VH: QVQLVQSGAEVKKPGASVKVSCKASGYTFTSYYMHWVRQAPGQGLEWIGIINPSGGHTSYAQKFQGRVTMTRDTSTSTVYMELSSLRSEDTAVYYCARGSPKGAFDYWGQGTLVTVSS
VL: not shown
B4: S2P6 UCA VH M48I Fab (Fab, V domains shown)
VH: QVQLVQSGAEVKKPGASVKVSCKASGYTFTSYYMHWVRQAPGQGLEWIGIINPSGGSTSYAQKFQGRVTMTRDTSTSTVYMELSSLRSEDTAVYYCARGSPKGAFDYWGQGTLVTVSS
VL: not shown
B5: S2P6 UCA VH S56H Fab (Fab, V domains shown)
VH: QVQLVQSGAEVKKPGASVKVSCKASGYTFTSYYMHWVRQAPGQGLEWMGIINPSGGHTSYAQKFQGRVTMTRDTSTSTVYMELSSLRSEDTAVYYCARGSPKGAFDYWGQGTLVTVSS
VL: not shown
B6: S2P6 UCA VH Y32Q Fab (Fab, V domains shown)
VH: QVQLVQSGAEVKKPGASVKVSCKASGYTFTSQYMHWVRQAPGQGLEWMGIINPSGGSTSYAQKFQGRVTMTRDTSTSTVYMELSSLRSEDTAVYYCARGSPKGAFDYWGQGTLVTVSS
VL: not shown

Molecular target: T1, Biotin-labeled MHV stem helix peptide (MHV, also: biotin label, position not given here)
T1 chain: PDFKEELDKWFKNQ
Assay: BLI

Question: How did the Kd turn out when B1 was run?
Answer: The Kd was 1190 nM.

Question: Which Kd does the source give for B2 here?
Answer: Its Kd is 2230 nM.

Question: Which Kd does the source give for B3 here?
Answer: The Kd was 1300 nM.

Question: B4 was tested. Which Kd did it give?
Answer: The Kd was 731 nM.

Question: B5 was tested. Which Kd did it give?
Answer: The Kd was 3760 nM.

Question: For B6, which Kd is on record?
Answer: The Kd was 2260 nM.
